Positions count from the first letter of the chain named. Like-named read-outs stand apart in the source and are kept apart here.
B1: 21G428-429 (antibody, V domains shown)
VH: EVQLVQSGAELVKPGASVKLSCAASGFNIKDTYIYWVRQAPGQGLEWVGRIEPMNGNTKYDPKFQGRFTMTANTSKNTAYLQLSSLRSEDTAVYYCSRGGWLLLYVMDYWGQGTLVTVSS
VL: DIVMTQSPSSLSVTPGERVSISCRSDKSLLHSNGNTYLYWFLQKPGQSPQVLIYRMSNLASGVPDRFSGSGSGTDFTLTISRVEAEDVGVYYCFQQLEYPYTFGQGTKLEIKR
B2: 19G292 (CD26 arm) (antibody, V domains shown)
VH: QVQLLQSGAEVVKPGASVKISCKASGFNIKDTYIYWVKQPTGQGLEWIGRIEPMNGNTKYDPKFQGRFTMTANTSINTAYLQLSSLTSEDTAVYYCSRGGWLLLYVMDYWGQGTTVTVSS
VL: DIVMTQSASSLPVTPGESVSISCRSDKSLLHSNGNTYLYWFLQRPGQSPQVLIYRMSNLASGVPDRFSGSGSGTEFTLTISRVEAEDVGVYYCFQQLEYPYTFGPGTKLEIK
B3: 19G294 (CD26 arm) (antibody, V domains shown)
VH: B1 VH
VL: B2 VL with A8P, P12S, S18R, R44K, E75D, P105Q
B4: 21G587 (CD26 arm) (antibody, V domains shown)
VH: B1 VH
VL: B2 VL with A8P, P12S, S18R, R44K, E75D, P105Q
B5: 19G297 (CD26 arm) (antibody, V domains shown)
VH: EVQLQESGPGLVKPSGTLSLTCAVSGDSITSGYWHWIRQAPGKGLEWVGYINYSGYTYYNPSLKSRFTISRDTSKNQYYLQLNSVTAEDTAVYYCTSERNWGAFAYWGQGTLVTVSS
VL: ENVLTQSPASLSASPGERVTITCRASSSVISTYLHWYQQKPGQAPKLWIYSTSNLASGVPARFSGSGSGTDYTLTISSVEPEDFATYYCQQFSGYPYTFGQGTKLEIK
B6: 19G296 (CD26 arm) (antibody, V domains shown)
VH: B5 VH with E1Q, G16E, A23T, A40P, V48I
VL: B5 VL with S10T, V19A, I21L, T22S, T86V
B7: 19G293 (CD26 arm) (antibody, V domains shown)
VH: B1 VH with E1Q, A23K, V48I, F68V, K76I, Q82E
VL: B2 VL with A8P, S9L, P12S, S18P, V19A, R44K, E75D, T79K, P105Q
B8: 17G105 (CD26 arm) (antibody)
chain: DIVLTQSPASLAVSLGQRATISCRASESVEYYGTSLMQWYQQKPGQPPKLLIYTASNVESGVPVRFSGSGSGTDFSLNIHPVEEDDIAMYFCQQSRKVPYTFGGGTKLEIKGGGGSGGGGSGGGGSQVQLQQSGPELMKPGASVKISCKATGYSFSGFWIEWVKQRPGHGLEWIGEILPGSGASNYHENFKGRATITADTSANTAYMQLRSLTSEDSAVYYCARERYYGSKYFDVWGAGTTVTVSS
B9: 17G29 (CD26 arm, YS110) (antibody, V domains shown)
VH: EVQLVESGAGVKQPGGTLRLTCTASGFSLTTYGVHWVRQAPGKGLEWVGVIWGDGRTDYDAAFMSRVTISKDTSKSTVYLQMNSLRAEDTAVYYCMRNRHDWFDYWGQGTTVTVSS
VL: DILLTQSPSSLSATPGERATITCRASQGIRNNLNWYQQKPGQAPRLLIYYSSNLQSGVPSRFSGSGSGTDFTLTISRLQPEDVAAYYCQQSIKLPFTFGSGTKVEIK
B10: 17G61 (CD26 arm) (antibody)
chain: DIVMTQAAPSVSVTPGESVSISCRSDKSLLHSNGNTYLYWFLQRPGQSPQVLIYRMSNLASGVPDRFSGSGSGTGFTLRVSRVEAEDVGVYYCFQQLEYPYTFGGGTKLEIKGGGGSGGGGSGGGGSEVQLQQSGAELVKPGASVKLSCTASGFNIKDTYIYWVKQRPGQGLEWIGRIEPMNGNTKYDPKFQGKATMTANTSSNTAYLHLSSLASEDTAVYFCSRGGWLLLYVMDYWGQGTSVTVSS

Tests used:
[1] = molecular target: 21G584 CD26 fragment 29-237 (human); assay: FACS
21G584 CD26 fragment 29-237 (human), sequence (chain, as listed by the source): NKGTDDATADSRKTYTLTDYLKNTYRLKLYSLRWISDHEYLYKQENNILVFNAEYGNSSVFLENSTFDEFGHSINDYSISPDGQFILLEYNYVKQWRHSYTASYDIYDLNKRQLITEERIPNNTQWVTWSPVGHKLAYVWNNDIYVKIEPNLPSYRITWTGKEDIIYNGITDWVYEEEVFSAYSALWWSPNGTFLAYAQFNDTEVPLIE

[2] = molecular target: 21G585 CD26 fragment 29-182 (human); assay: FACS
21G585 CD26 fragment 29-182 (human), sequence (chain, as listed by the source): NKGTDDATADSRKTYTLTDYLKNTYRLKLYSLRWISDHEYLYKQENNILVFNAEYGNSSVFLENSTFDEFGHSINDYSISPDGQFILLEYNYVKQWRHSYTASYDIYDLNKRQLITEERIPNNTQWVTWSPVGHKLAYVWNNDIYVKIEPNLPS

[3] = molecular target: 23G645 CD26 fragment 498-766 (human); assay: FACS
23G645 CD26 fragment 498-766 (human), sequence (chain, as listed by the source): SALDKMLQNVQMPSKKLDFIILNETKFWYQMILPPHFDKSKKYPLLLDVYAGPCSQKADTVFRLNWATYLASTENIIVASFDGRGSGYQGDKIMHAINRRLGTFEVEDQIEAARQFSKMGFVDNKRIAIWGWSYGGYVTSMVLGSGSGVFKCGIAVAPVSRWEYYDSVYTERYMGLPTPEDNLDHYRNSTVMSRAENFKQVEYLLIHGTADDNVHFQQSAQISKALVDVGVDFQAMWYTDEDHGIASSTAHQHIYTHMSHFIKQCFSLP

[4] = molecular target: 21G583 CD26 fragment 29-300 (human); assay: FACS
21G583 CD26 fragment 29-300 (human), sequence (chain, as listed by the source): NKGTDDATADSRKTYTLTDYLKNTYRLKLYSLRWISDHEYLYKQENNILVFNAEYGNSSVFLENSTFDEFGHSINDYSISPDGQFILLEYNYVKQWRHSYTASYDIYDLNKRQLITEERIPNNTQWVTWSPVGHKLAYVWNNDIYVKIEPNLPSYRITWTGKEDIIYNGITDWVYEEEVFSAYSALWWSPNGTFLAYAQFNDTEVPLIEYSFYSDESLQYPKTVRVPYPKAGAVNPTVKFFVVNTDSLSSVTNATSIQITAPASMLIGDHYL

[5] = molecular target: T1, CD26 (human, UniProt P27487); assay: BLI
T1 sequence (P27487 29-766): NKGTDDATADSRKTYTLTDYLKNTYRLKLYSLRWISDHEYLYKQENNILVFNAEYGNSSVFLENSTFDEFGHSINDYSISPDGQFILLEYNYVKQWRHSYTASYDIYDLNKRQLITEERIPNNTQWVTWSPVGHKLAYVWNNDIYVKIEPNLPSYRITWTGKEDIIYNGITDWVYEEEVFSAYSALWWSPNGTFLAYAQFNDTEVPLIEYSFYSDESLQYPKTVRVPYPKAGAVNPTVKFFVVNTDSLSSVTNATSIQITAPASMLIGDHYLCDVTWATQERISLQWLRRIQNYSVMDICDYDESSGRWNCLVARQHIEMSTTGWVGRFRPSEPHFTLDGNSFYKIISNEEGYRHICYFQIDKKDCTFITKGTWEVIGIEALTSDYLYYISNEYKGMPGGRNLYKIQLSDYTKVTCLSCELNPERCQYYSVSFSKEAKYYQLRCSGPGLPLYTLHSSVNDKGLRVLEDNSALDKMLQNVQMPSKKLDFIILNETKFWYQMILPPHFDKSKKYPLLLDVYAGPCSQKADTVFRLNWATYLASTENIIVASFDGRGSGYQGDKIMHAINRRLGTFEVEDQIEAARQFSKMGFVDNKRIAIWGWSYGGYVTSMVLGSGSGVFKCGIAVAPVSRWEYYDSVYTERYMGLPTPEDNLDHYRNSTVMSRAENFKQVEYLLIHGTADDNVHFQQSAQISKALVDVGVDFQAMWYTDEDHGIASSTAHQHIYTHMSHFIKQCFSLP

[6] = molecular target: T1, CD26; assay: BLI; remark: listed apart in the source

Binder | Kd [5] [nM] | further results
B1 | – | binding result [1]: no binding; binding result [2]: no binding; binding result [3]: no binding; binding result [4]: no binding
B2 | < 0.001 | –
B3 | 0.914 | –
B4 | 0.352 | –
B5 | 4.4 | –
B6 | 14.8 | –
B7 | < 0.001 | –
B8 | – | Kd [6]: 39.3 nM
B9 | 1.18 | –
B10 | – | Kd [6]: 17.3 nM
